Laboratory results published in paper PMC7891936.

Target: Recombinant human cartilage oligomeric matrix protein (COMP) (human) (UniProt P49747)
Test: atomic force microscopy

Chain of Recombinant human cartilage oligomeric matrix protein (COMP), P49747 21-757 (natural protein; other documents disagree on this pair) (P49747 21-757): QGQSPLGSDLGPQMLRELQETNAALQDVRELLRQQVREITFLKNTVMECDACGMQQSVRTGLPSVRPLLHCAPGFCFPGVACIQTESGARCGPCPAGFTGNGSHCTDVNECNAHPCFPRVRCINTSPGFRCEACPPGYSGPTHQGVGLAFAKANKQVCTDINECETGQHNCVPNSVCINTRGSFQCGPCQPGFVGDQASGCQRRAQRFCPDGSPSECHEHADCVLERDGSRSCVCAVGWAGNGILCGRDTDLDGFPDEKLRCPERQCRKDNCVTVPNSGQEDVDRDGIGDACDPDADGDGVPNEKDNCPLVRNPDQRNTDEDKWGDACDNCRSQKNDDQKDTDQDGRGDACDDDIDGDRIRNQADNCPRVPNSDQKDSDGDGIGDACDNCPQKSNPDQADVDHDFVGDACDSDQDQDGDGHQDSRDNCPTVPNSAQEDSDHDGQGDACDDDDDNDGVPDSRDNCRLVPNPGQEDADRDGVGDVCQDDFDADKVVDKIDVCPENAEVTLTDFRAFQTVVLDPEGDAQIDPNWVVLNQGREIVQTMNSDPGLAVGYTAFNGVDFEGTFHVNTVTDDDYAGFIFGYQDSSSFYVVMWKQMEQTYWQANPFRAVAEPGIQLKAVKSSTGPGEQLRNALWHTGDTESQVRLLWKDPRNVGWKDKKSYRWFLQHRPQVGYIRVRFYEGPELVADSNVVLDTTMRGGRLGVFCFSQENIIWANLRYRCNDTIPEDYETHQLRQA

stoichiometry N: 5
Substance: Recombinant human cartilage oligomeric matrix protein (COMP), P49747 21-757 (natural protein; other documents disagree on this pair)
